Laboratory results as given in article PMC3578176 (Cancer research, 2012).

Molecular target: His(6)-p300 (UniProt Q09472 1-2414)
Test: pull-down

Sequence of His(6)-p300 (Q09472 whole entry): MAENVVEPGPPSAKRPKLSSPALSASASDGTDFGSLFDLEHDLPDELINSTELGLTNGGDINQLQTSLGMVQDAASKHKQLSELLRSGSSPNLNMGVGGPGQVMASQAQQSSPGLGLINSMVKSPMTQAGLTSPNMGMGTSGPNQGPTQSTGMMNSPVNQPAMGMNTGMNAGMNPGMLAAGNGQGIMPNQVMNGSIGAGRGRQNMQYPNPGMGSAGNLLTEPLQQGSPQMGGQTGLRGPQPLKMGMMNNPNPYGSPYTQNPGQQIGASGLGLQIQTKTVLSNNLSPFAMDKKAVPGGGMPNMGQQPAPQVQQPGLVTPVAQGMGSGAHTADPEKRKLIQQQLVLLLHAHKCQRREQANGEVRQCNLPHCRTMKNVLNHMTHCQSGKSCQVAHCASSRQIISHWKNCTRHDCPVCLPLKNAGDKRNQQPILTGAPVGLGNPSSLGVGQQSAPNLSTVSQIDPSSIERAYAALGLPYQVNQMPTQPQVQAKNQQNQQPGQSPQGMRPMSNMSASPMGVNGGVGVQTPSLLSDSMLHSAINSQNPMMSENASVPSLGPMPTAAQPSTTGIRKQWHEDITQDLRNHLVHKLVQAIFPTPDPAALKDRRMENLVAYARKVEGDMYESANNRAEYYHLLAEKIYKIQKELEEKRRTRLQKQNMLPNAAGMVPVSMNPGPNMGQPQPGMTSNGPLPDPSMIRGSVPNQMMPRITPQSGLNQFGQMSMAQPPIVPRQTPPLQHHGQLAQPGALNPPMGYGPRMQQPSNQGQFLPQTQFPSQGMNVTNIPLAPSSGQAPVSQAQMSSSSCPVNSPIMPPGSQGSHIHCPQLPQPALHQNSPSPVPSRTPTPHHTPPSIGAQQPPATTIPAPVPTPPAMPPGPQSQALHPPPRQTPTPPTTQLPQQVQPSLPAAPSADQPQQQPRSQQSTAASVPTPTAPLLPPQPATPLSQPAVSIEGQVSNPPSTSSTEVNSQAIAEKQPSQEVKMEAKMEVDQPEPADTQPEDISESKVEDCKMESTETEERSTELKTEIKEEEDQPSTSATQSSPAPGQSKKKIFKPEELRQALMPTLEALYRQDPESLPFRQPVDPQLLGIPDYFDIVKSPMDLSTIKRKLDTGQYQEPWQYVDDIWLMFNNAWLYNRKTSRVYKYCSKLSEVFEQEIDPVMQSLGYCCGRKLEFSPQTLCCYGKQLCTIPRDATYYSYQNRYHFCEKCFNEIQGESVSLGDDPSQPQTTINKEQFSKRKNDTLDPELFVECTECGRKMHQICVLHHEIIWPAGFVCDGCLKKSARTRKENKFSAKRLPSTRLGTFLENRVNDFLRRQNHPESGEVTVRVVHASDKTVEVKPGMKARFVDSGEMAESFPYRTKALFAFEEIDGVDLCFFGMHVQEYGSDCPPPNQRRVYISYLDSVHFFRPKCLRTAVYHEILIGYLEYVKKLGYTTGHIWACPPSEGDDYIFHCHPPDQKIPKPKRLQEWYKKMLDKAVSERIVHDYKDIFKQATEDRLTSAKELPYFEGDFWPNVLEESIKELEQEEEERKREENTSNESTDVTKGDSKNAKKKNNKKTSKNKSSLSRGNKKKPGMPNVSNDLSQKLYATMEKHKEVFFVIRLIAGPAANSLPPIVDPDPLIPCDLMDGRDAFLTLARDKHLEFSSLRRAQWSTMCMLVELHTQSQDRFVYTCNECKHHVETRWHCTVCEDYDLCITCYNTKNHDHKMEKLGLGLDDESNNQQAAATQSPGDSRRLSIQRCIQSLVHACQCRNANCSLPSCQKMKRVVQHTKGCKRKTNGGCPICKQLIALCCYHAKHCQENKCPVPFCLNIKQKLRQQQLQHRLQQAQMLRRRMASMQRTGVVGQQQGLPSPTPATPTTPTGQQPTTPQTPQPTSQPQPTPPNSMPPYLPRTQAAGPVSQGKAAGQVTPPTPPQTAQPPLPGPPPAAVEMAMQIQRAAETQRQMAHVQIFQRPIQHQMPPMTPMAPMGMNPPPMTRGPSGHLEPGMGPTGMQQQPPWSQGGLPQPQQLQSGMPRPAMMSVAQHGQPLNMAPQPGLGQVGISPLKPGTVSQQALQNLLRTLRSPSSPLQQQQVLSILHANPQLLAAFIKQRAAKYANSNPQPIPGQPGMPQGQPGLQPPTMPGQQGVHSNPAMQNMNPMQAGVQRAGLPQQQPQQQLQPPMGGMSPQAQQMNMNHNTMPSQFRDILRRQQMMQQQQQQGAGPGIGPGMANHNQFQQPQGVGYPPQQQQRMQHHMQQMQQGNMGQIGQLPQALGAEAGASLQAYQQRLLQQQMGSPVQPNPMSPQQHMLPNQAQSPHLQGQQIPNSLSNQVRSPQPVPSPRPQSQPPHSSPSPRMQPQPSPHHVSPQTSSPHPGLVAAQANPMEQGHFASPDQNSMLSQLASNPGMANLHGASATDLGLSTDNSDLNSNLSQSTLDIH

B1: GST-fused BRMS1 WT (natural protein, UniProt Q9HCU9 1-246, looked up)
chain: MPVQPPSKDTEEMEAEGDSAAEMNGEEEESEEERSGSQTESEEESSEMDDEDYERRRSECVSEMLDLEKQFSELKEKLFRERLSQLRLRLEEVGAERAPEYTEPLGGLQRSLKIRIQVAGIYKGFCLDVIRNKYECELQGAKQHLESEKLLLYDTLQGELQERIQRLEEDRQSLDLSSEWWDDKLHARGSSRSWDSLPPSKRKKAPLVSGPYIVYMLQEIDILEDWTAIKKARAAVSPQKRKSDGP
- binding result: binds
